We go through nine molecules from patent US20240307562A1 (ONCOONE RESEARCH AND DEVELOPMENT, published 2024).

In assay [1] the target is T1, Recombinant human MIF immobilized on ELISA plates (oxMIF) (human, UniProt P14174 2-115).
T1 construct: also called immobilized MIF; oxidized MIF
Put plainly: ELISA on immobilized human MIF (oxMIF), protein L-HRP detection; EC50 of 4-parameter fit taken as KD. How it is done: (§1) Material and Methods: Recombinant human MIF diluted in PBS at 1 μg/ml was immobilized into ELISA plates overnight at 4° C. (transforming MIF to oxMIF according to Thiele et al., 2015). After blocking, serial dilutions of anti-oxMIF antibodies were added to the plates. Finally, bound antibodies were detected using a protein L-HRP conjugate and tetramethylbenzidine (TMB) as substrate. The chromogenic reaction was stopped with 3M H₂SO₄ and OD was measured at 450 nm. Data from different experiments were normalized to the maximal OD of the anti-oxMIF antibody C0008 (=100%) of the respective experiment and EC₅₀ values were determined by 4-parameter fit using GraphPad Prism (and the mean of two experiments is shown).
A general note: In an ELISA, binding on a coated surface is turned into a signal by an enzyme label.

Assay [2] deals with T1, Recombinant human MIF immobilized on …. Description: ELISA on immobilized human MIF (oxMIF), anti-human IgG (Fc)-HRP detection; EC50 taken as apparent KD. Here is the method:
Recombinant human MIF diluted in PBS at 1 μg/ml was immobilized into ELISA plates overnight at 4° C. (transforming MIF to oxMIF according to Thiele et al., 2015). After blocking, serial dilutions of anti-oxMIF antibodies with and without DFO* conjugation (DFO* conjugation is described in Example 19) were added to the plates. Finally, bound antibodies were detected using a Goat anti-human IgG (Fc)-HRP conjugate and tetramethylbenzidine (TMB) as substrate. The chromogenic reaction was stopped with 3M H₂SO₄ and OD was measured at 450 nm. If data from different experiments were combined, the data were normalized to the maximal OD of the anti-oxMIF antibody C0008 (=100%) of the respective experiment and EC₅₀ values were determined by 4-parameter fit using GraphPad Prism (and the mean+/−SEM of two experiments is shown).
Results and conclusion: The binding of the newly designed antibodies towards immobilized MIF (oxMIF) was measured over a broad range of concentrations and the resulting binding curves are illustrated in FIG. 19. The anti-oxMIF antibody C0008 was used as reference for oxMIF binding. […] Additionally, DFO* conjugation of the newly designed Fc-silenced antibodies C0115 and C0118 has not changed their affinity (FIG. 19B).

The target of assay [3] is human FcγRIIIA receptor, V158 (high affinity allotype) (human, UniProt P08637 17-254). Description: cell-based or functional assay.
human FcγRIIIA receptor, V158 (high affinity allotype), sequence (P08637 17-254 F176V): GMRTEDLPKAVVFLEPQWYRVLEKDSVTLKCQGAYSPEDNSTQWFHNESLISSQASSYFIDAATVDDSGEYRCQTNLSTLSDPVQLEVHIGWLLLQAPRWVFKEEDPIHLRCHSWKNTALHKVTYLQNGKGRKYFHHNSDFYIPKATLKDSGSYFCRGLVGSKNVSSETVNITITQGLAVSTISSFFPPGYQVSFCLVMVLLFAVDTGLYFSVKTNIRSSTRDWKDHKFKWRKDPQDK
For assay [4], the target named is T1, Recombinant human MIF immobilized on …. Description: ELISA on immobilized human MIF (oxMIF). How it is done: as §1
Results and conclusion: The binding of the newly designed antibodies towards immobilized MIF (oxMIF) was measured over a broad range of concentrations and the resulting binding curves are illustrated in FIG. 8. The anti-oxMIF antibody C0008 was used as reference for oxMIF binding.

Residue numbers refer to the chain shown, from its start. Names and notes keep the numbering of the source.

T1 sequence (P14174 2-115 limits assumed): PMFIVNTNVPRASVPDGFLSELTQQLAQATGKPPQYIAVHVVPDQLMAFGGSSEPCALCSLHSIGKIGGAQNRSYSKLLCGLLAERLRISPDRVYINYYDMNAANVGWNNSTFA

B1: C0008 (Imalumab control antibody) (antibody, human IgG1, kappa, V domains shown)
VH: EVQLLESGGGLVQPGGSLRLSCAASGFTFSIYSMNWVRQAPGKGLEWVSSIGSSGGTTYYADSVKGRFTISRDNSKNTLYLQMNSLRAEDTAVYYCAGSQWLYGMDVWGQGTTVTVSS
VL: DIQMTQSPSSLSASVGDRVTITCRSSQRIMTYLNWYQQKPGKAPKLLIFVASHSQSGVPSRFRGSGSETDFTLTISGLQPEDSATYYCQQSFWTPLTFGGGTKVEIKR
notes: also called Bax69
In the case of B1, the results for the Kd in assay [1] and in assay [2] were 0.7 nM and 0.19 nM, respectively.

B2: C0076 (antibody, human IgG1, kappa, V domains shown)
VH: B1 VH with L5Q
VL: B1 VL with F49Y, A51G
notes: IgG1, wt Fc
B2: the Kd in assay [1] is 1.1 nM.

B3: C0118 (antibody, human IgG1, kappa, L234A L235A)
heavy: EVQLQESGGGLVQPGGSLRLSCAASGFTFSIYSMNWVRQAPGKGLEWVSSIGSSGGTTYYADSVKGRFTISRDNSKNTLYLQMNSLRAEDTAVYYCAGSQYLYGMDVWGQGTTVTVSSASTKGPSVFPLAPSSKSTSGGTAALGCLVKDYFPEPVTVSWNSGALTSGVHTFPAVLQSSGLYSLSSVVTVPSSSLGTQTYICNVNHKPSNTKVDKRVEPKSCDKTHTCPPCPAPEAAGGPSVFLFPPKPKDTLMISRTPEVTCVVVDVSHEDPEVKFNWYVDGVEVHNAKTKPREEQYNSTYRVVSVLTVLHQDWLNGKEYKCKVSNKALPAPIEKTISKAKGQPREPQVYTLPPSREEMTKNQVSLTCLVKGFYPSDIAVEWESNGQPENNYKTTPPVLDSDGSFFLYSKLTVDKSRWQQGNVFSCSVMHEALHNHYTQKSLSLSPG
light: DIQMTQSPSSLSASVGDRVTITCRSSQRILTYLNWYQQKPGKAPKLLIYVGSHSQSGVPSRFRGSGSETDFTLTISGLQSEDSATYYCQQSFFTPLTFGGGTKVEIKRTVAAPSVFIFPPSDEQLKSGTASVVCLLNNFYPREAKVQWKVDNALQSGNSQESVTEQDSKDSTYSLSSTLTLSKADYEKHKVYACEVTHQGLSSPVTKSFNRGEC
notes: IgG1 with Fc silencing L234A/L235A (EU numbering); also called Fc silenced anti-oxMIF antibody C0118
With B3, the Kd in assay [2] worked out at 0.26 nM.

B4: C0115 (antibody, human IgG1, kappa, L234A L235A)
heavy: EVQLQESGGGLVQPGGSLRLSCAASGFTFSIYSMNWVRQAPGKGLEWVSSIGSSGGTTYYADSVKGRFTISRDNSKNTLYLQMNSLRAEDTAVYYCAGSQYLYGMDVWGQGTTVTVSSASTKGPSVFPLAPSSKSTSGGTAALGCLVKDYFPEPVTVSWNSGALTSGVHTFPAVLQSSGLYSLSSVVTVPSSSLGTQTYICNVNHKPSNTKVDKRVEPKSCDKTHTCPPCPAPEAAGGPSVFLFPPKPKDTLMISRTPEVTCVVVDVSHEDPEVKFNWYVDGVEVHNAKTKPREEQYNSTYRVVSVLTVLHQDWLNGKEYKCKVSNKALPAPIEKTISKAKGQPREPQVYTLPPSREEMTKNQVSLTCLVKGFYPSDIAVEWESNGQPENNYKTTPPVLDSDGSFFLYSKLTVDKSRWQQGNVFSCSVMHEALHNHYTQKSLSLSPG
light: B3 light with L30M, S80P
notes: IgG1 with Fc silencing L234A/L235A (EU numbering); also called Fc silenced anti-oxMIF antibody C0115
As to B4, in assay [2], the Kd came out at 0.28 nM.

B5: C0090 (antibody, human IgG1, kappa)
heavy: not shown
light: B3 light
notes: IgG1, wt Fc; also called parent antibody of C0118
Consider B5, for which the Kd in assay [1] came to 0.5 nM. Moreover, the “EC50 (read off the curve), ADCC reporter luminescence” value in assay [3] is ~3 nM.

B6: C0078 (antibody, human IgG1, kappa)
heavy: not shown
light: B3 light with L30M, S80P
notes: IgG1, wt Fc
B6: the Kd in assay [1] was determined as 1.6 nM.

B7: C0073 (antibody, human IgG1, kappa)
heavy: not shown
light: B3 light with L30M, S80P
notes: IgG1, wt Fc
Consider B7, for which the Kd in assay [1] turned out to be 1 nM.

B8: C0077 (antibody, human IgG1, kappa, name in Kabat numbering, V domains shown)
VH: B1 VH with L5Q
VL: B1 VL with Y36F, F49Y, A51G
notes: IgG1, wt Fc
B8: the Kd in assay [1] turned out to be 5.2 nM. Further, the “fold reduction in affinity compared to C0076” value in assay [4] amounted to 5 fold.

B9: C0083 (antibody, human IgG1, kappa)
heavy: not shown
light: B3 light with L30M, S80P
notes: IgG1, wt Fc; also called parent antibody of C0115
As for B9, in assay [1], the Kd was 0.5 nM. The “EC50 (read off the curve), ADCC reporter luminescence” value in assay [3] is ~3 nM.
